Measured values: patent US9365836B2, “Glycosyltransferase gene and use thereof” (SUNTORY HOLDINGS LIMITED, priority 2011, dated 2016)

Key:
Assay type in all cases: biochemical
[1] = Determination of enzyme activity of candidate glycosyltransferases, crude enzyme from Escherichia coli (HPLC); settings: crude enzyme solution, substrate apigenin, UDP-glucose, 30° C., 1 hour
Description: pET-NmGT0 through pET-NmGT9 were introduced into Escherichia coli strain BL2 using the One Shot BL21 (DE3) (Invitrogen) according to a protocol recommended by the manufacturer to obtain transformed Escherichia coli. The Escherichia coli was cultured, using the Overnight Express Autoinduction System 1 (Novagen) according to a protocol recommended by the manufacturer. With 2 ml of the culture liquid prepared, the transformed Escherichia coli was cultured at 37° C. (about 4 hours) until the OD600 value reached 0.5. To this Escherichia coli solution as the preculture, 50 ml of the culture liquid was added and then subjected to the main culture overnight at 27° C. […]
80 μl of the crude enzyme solution, 20 μl of 5 mM UDP-glucose, 20 μl of 1M Tris HCl (pH 7.5), and 1 μl of 500 ng/μl apigenin were prepared on ice to 200 μl in water, and the reaction mixture obtained was maintained at 30° C. for 1 hour. Subsequently, 200 μl of the stopping buffer (a 90% acetonitrile aqueous solution containing 0.1% TFA) was added to stop the reaction, and analyzed with a high performance liquid chromatography (Prominence (Shimadzu)). The detector used is Shimadzu PDA SPD-M10AVP, and the flavone was detected at 330 nm. […]

[2] = Determination of enzyme activity of His-Tag-purified NmGT3 and NmGT4 protein solutions (HPLC); settings: for product biosynthesized from apigenin 7-glucoside: substrate 50 ng/μl apigenin 7-glucoside, same condition; for product biosynthesized from apigenin: substrate 500 ng/μl apigenin, UDP-glucose, 30° C., 20 minutes; for product biosynthesized from apigenin 4′-glucoside: substrate apigenin 4′-glucoside, same condition (not shown)
Description: The Escherichia coli strain BL2 in which pET-NmGT3 or pET-NmGT4 described in Example 5 was introduced was cultured, using the Overnight Express Autoinduction System 1 (Novagen) according to a protocol recommended by the manufacturer. With 8 ml of the culture liquid prepared, the transformed Escherichia coli was cultured at 37° C. (about 4 hours) until the OD600 value reached 0.5. To this Escherichia coli solution as the preculture, 200 ml of the culture liquid was added and then subjected to the main culture overnight at 25° C.
The overnight-cultured Escherichia coli solution was centrifuged (1000×g, 4° C., 10 minutes), and the cells collected were suspended in 20 ml of a buffer (composition: NaCl: 0.5 M, Tris HCl (pH 7.9): 20 mM, imidazole: 5 mM, amidinophenyl methanesulfonyl fluoride hydrochloride (APMSF): 10 μM), and Escherichia coli was disrupted by sonication. The cells were then centrifuged (1400×g, 4° C., 20 minutes), and the supernatant was collected. The supernatant was passed through a 0.45 μm filter to His-Tag-purify using the Profinia (Bio-Rad) according to a protocol recommended by the manufacturer. The purified protein solution thus obtained was centrifuged (7500×g, 4° C., 15 minutes) using the Centrifugal filters (Ultracel-10K) (Amicon Ultra), and the concentrated protein solution was termed as “NmGT3 protein solution” and “NmGT4 protein solution”. For centrifugation, the Avanti HP-26 XP (rotor: JA-2) was used (BECKMAN COULTER).
(§1) 20 μl of the protein solution, 20 μl of 5 mM UDP-glucose, 20 μl of 1M Tris HCl (pH 7.5), and 1 μl of 500 ng/μl apigenin were mixed and prepared on ice to 200 μl in water, and the reaction mixture obtained was maintained at 30° C. for 20 minutes. Subsequently, 200 μl of the stopping buffer (a 90% acetonitrile aqueous solution containing 0.1% TFA) was added to stop the reaction, and analyzed with a high performance liquid chromatography (Prominence (Shimadzu)). The detector used is Shimadzu PDA SPD-M10AVP, and the flavone was detected at 330 nm. The column used is Shim-Pack ODS 150 mm×4.6 mm (Shimadzu). In elution, solution A (a 0.1% TFA aqueous solution) and solution B (a 90% methanol aqueous solution containing 0.1% TFA) were used. A linear gradient from a 8:2 mixture of the two solutions to a 3:7 mixture over 10 minutes and then a 3:7 mixture over 6 minutes were used in elution. The flow rate was set at 0.6 ml/minute.

[3] = Reactivity to various flavonoid compounds and betanidine (FIG. 13)
[4] = Determination of enzyme activity of His-Tag-purified SuGT protein solutions from Salvia uliginosa (HPLC)
Description: Escherichia coli expression constructs (pET-SuGT2, 5, 10) were created in a manner similar to that described in Example 5.
In a manner similar to that described in Example 5, “SuGT2 protein solution”, “SuGT5 protein solution” and “SuGT10 protein solution” were prepared.
as §1, with “20 μl of the protein solution, 20 μl of 5 mM UDP-glucose, 20 μl of 1M Tris HCl (pH 7.5), and 1 μl of 500 ng/μl apigenin were mixed and prepared on ice to 200 μl in water, and the reaction mixture obtained was maintained at 30° C. for 20 minutes.” left out

B1: NmGT4: Nemophila glycosyltransferase (SEQ ID NO: 4, cDNA SEQ ID NO: 3) expressed in Escherichia coli, His-Tag purified (protein, listed as Nemophila menziesii)
chain: MAAQLHVVFFPFMAQGHLIPTLEMVKLFSSRGLKTTIVTTKFYAPAVTKSIEKTKHTGNQINIIIIKFPSAEVGLPEGSESLDKLKSPDMFMKFFKALSLLQEPFEQILQELSPDCIVSDMFFPWTTASAAKFDIPRFVFHGLSLFALCVSENMRFYKPFKNLGSESLDSEPVMLPDFPNQIEFSKVQVPEFEVGESKNEIMELLNQVKESEVKSYGIIINSFNELEKDYVDYYRNVWGRRAWLLGPLSLSNRDDEVKDQTDEHGSLKWLDSKKPDSVIYVCFGSVAPLSSSQLHEIALGLESSGQQFIWVVKEREDGEKWLPEGFEERIKDKGLIIRGWAPQVSILEHESTGGFVTHCGWNSVLEAVSAGVVMATLPTFAEQPFNEKLLTKVLKIGIPIGSPLSNRGKSGVKKEEIAEAMKGIMEGEEALEMRIRAKSLKEMAWKAVEEGGSSYNDLTSLIDGVKAYRSQSNKI
modifications: His-tag
- HPLC peaks after reaction of crude enzyme with apigenin [1]: peaks other than that of the substrate were observed
- product biosynthesized from apigenin 7-glucoside [2]: a flavone exhibiting the same retention time and the same absorption maximum as the purified apigenin 4′,7-diglucoside product was biosynthesized
- product biosynthesized from apigenin [2]: a flavone exhibiting the same retention time and the same absorption maximum as the purified apigenin 4′,7-diglucoside product had been biosynthesized
- product biosynthesized from apigenin 4′-glucoside [2]: a flavone exhibiting the same retention time and the same absorption maximum as the apigenin 4′,7-diglucoside purified product was biosynthesized
- reactivity to various flavonoid compounds and betanidine [3]: found to have an activity for not only apigenin and its glycosides but for luteolin and its glycosides and flavonol and its glycosides

B2: NmGT3: Nemophila glycosyltransferase (SEQ ID NO: 2, cDNA SEQ ID NO: 1) expressed in Escherichia coli, His-Tag purified (protein, listed as Nemophila menziesii)
chain: MPSILSNSAHILLFPFPTSGHIIPILDLANQLLARGLTITILITPANLTLLSTQLIELDRLGSLHTLVLPFPNPPNPSETSLAARVHASSQLSNTIIQWFQSHTSPPVAIVSDFFLGWTNSLASQLGIPRLVFWPSGVQRSSLVDYIWQNDQLSDSDHQIQDNSVISFPDVPNSPAYPKWQACGLSTQYKKGDPSWEFFKNGVLANTQSWGAIYNSFRDLEGVYIDYIKKKMGHGRVWAVGPLLPANDASKRGGSCVMPIDDVMTWLDTKTNSDNSVVYVCFGSRVELTTEQLDSLAAALEISGVHFILCVKLHQEISKEYEDRVAGRGLIIRGWAPQVAILRHRAVGAFLTHCGWNSILEGIAAGVVMLTWPMGADQFTNANLLVDELKVAMKACEGGDSNVPNPAMLANVLAESINGGRAERERVTELCDAALKAVQSGNGSSAKDLDSLTNQLNGLKVKIN
modifications: His-tag
- HPLC peaks after reaction of crude enzyme with apigenin [1]: peaks other than that of the substrate were observed
- product biosynthesized from apigenin 7-glucoside [2]: a flavone exhibiting the same retention time and the same absorption maximum as the purified apigenin 4′,7-diglucoside product was biosynthesized
- product biosynthesized from apigenin [2]: a flavone exhibiting the same retention time and the same absorption maximum as the purified apigenin 4′,7-diglucoside product had been biosynthesized
- product biosynthesized from apigenin 4′-glucoside [2]: a flavone exhibiting the same retention time and the same absorption maximum as the apigenin 4′,7-diglucoside purified product was biosynthesized
- reactivity to various flavonoid compounds and betanidine [3]: found to have an activity for not only apigenin and its glycosides but for luteolin and its glycosides and flavonol and its glycosides

B3: SuGT5: Salvia uliginosa glycosyltransferase (SEQ ID NO: 13, cDNA SEQ ID NO: 12) expressed in Escherichia coli, His-Tag purified (protein, listed as Salvia uliginousa)
chain: MKQLHIALFPSMAHGHMIPMFELAKLFTSRGLKATIIATPAFAAPITKAQQSGLDVGLAITPFPPKGSSLPQNIIAFDQMTNPDLTTSFLRAMELLQEPVEAILQELHPDCLVSDMFLPWTADSAAKFQIPRLAFYGTSYFSRCVSEQVGDKPFNNVTSDSEPVLVPGLPQQIKFVRSQFSPVLLEETQNDFAKLFKQMTEAWKKTYGEVVNSFNELESDYANHYKNVIGRKAWEIGPLLLCSSSKGGEKNQQRGKESAIDEHECLAWLDSKNPNSVVYVCAGSVASFSQAQLRETAMGLEASGQNFVWVVRKNKEDDDDWLPVGFEERVGNRGLIIRGWAPQVMILNHAAVGAFVTHCGWNSTLEGVCAGLPMVTWPVFAEQFFNEKLVTEVLGTGVSVGNKRWMLRESEGVERDAVARAVEEIMVGGGAEEMRSRAENYKEMAKKAVEEGGSSYNNLNALIEELSNYVAPTIQDKN
modifications: His-tag
- product biosynthesized from apigenin 7-glucoside ([4]; substrate 500 ng/μg apigenin 7-glucoside, same condition): a flavone exhibiting the same retention time and the same absorption maximum as the purified apigenin 4′,7-diglucoside product was biosynthesized
- product biosynthesized from apigenin ([4]; substrate 500 ng/μg apigenin, UDP-glucose, 30° C., 90 minutes): a flavone exhibiting the same retention time and the same absorption maximum as the purified apigenin 4′,7-diglucoside product had been biosynthesized
- reactivity to various flavonoid compounds and betanidine [3]: found to have an activity for not only apigenin and its glycosides but for luteolin and its glycosides and flavonol and its glycosides
